According to publication PMC2198822 (The Journal of Cell Biology, 2001):

T1: formiminotransferase cyclodeaminase (FTCD), bacterially expressed and purified (rat, UniProt O88618 1-541)
T1 sequence (looked up): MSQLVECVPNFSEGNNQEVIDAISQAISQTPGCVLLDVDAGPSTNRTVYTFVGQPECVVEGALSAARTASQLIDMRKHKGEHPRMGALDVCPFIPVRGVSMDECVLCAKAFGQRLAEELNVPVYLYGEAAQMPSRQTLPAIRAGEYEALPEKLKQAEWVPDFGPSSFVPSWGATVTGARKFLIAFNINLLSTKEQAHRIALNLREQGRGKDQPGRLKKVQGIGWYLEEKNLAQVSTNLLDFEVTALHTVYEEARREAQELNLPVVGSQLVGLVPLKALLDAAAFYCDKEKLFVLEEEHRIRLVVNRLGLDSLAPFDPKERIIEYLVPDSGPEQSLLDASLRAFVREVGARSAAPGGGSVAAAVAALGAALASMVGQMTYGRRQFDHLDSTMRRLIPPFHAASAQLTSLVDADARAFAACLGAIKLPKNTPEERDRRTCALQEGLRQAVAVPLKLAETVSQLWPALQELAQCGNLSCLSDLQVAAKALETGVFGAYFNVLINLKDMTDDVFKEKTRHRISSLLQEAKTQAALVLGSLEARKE

B1: recombinant mouse vimentin, bacterially expressed and purified (natural protein)
chain: not shown
B2: 35S-radiolabeled FTCD generated in vitro by coupled transcription/translation (enzyme, UniProt O88618 1-541, looked up)
chain: T1 sequence (looked up)
modifications: [35S]methionine and [35S]cysteine label

What was measured:
[1] = target: T1, formiminotransferase cyclodeaminase …; assay: co-sedimentation
[2] = target: B1; assay: far-Western, overlay or dot blot
[3] = target: T1, formiminotransferase cyclodeaminase …; assay: far-Western, overlay or dot blot

Row | Binder | binding result [1] | fold bound relative to BSA [2] [fold] | fold bound relative to BSA [3] [fold]
1 | B1 | binds | – | –
2 | B2 | – | ~10 | ~6
